Paper PMC10503415

What was measured:
[1] = target: DhmeA^ΔGG (Haloferax mediterranei); test: crystal structure; DhmeA^ΔGG 12-14 mg/mL; sitting drop at 10°C; 0.1 M MES/imidazole pH 6.5, 0.1 M amino acids, 10% PEG 4,000, 20% glycerol; 3.3 Å
[2] = target: full-length wild-type DhmeA from pnEA/3CH-dhmeA, His6 tag removed with 3C protease (Haloferax mediterranei); test: dynamic light scattering; wild-type DhmeA 1 mg/mL in 1 M NaCl, 10 mM Tris pH 8.0, 0.5 mM TCEP; Delsa Max Core
[3] = target: full-length wild-type DhmeA from pnEA/3CH-dhmeA, His6 tag removed with 3C protease (Haloferax mediterranei); test: cryo-EM structure; full-length DhmeA 0.035 mg/mL on Quantifoil grids; data collected at 0° and 44° stage tilt on a Titan Krios; 7-8 Å

Substance	stoichiometry N [1]	stoichiometry N [2]	stoichiometry N [3]
DhmeA^ΔGG (enzyme)	20		
full-length wild-type DhmeA from pnEA/3CH-dhmeA, His6 tag removed with 3C protease (enzyme)		4	6
